Experimental data published in patent US20240018201A1.

Tests used:
[1] = biological target: Llama Anti-human LC-kappa VHH Single Domain Antibody [Biotin] (CAT #: NABG-118); test: BLI, biotinylated VHH ligand on streptavidin biosensor
[2] = biological target: human TNF alpha (Miltenyi, from yeast, Catalog no. 130-094) (human) (UniProt P01375); test: SPR, Biacore 8K (column head prints nM; koff/kon gives this number in M)
[3] = biological target: human TNF alpha (Miltenyi, from yeast, Catalog no. 130-094) (human) (UniProt P01375); test: SPR, Biacore 8K

Sequence of UniProt P01375 (P01375 77-233 limits assumed): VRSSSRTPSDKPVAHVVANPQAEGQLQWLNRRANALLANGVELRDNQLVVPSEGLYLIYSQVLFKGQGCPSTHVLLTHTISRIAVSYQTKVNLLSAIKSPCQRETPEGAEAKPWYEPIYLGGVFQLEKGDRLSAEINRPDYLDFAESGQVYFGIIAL

% Response BLI of construct in comparison to wildtype (=% Binding to Kappa-ligand) [1] [%] | Kd [2] [nM] | % KD to wildtype [3] [%] | % koff to wildtype [3] [%] | % kon to wildtype [3] [%] | koff [3] [s⁻¹] | kon [3] [M⁻¹ s⁻¹] | Substance
100 | 0.0531 |  |  |  |  |  | Adalimumab with WT light chain (no mutations) and L234A/L235A human IgG Fc variant (antibody)
1.66 | 0.0528 | 99.4 | 96.1 | 96.1 | 0.000208 | 3.94e+06 | Adalimumab variant with Gln199Trp light chains (L234A/L235A Fc) (antibody)
12.5 | 0.0583 | 110 | 90.5 | 90.5 | 0.000216 | 3.71e+06 | Adalimumab variant with Thr109Arg + Ser202Arg light chains (L234A/L235A Fc) (antibody)
7.87 | 0.0553 | 104 | 92.7 | 92.7 | 0.00021 | 3.8e+06 | Adalimumab variant with His198Arg light chains (L234A/L235A Fc) (antibody)
